In article PMC6677593 (Molecular cancer therapeutics, 2019) one finds Kd data, which are given here for one molecule.

Assay [1] concerns the target LIFR labelled with fluorescent dye (MST target) (UniProt P42702 45-1097, fluorescent dye, NHS chemistry). The assay is described as follows: MST.
The target in assay [2] is T1, Human LIFR-Fc (human, UniProt P42702 45-833).
T1 sequence (looked up): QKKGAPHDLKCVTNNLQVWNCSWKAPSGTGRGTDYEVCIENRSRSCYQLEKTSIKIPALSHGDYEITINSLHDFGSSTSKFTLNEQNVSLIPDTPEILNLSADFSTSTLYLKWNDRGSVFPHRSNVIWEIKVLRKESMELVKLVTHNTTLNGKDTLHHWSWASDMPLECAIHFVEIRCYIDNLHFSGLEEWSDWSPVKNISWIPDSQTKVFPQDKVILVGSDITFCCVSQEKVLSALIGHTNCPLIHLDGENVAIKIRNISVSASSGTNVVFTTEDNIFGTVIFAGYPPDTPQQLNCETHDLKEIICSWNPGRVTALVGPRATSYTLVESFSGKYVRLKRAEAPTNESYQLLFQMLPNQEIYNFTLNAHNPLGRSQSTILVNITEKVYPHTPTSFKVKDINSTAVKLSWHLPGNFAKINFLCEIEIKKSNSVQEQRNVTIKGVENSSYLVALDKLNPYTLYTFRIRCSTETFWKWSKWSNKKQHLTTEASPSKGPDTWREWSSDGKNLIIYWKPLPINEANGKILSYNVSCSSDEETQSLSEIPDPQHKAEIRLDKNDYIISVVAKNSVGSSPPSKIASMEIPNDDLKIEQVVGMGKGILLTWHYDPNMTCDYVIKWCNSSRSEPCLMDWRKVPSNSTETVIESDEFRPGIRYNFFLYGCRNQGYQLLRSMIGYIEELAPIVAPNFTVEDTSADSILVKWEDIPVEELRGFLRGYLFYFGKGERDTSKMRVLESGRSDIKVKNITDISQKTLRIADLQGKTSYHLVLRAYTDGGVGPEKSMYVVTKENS
The assay is described as follows: SPR.

B1: Recombinant human leukemia inhibitory factor (LIF) (ligand)
chain: not shown
On to B1, for which the figures for the Kd in assay [1] and in assay [2] were 0.00136 µM and 7 µM, respectively.

Usually Kd stands for a measure of binding affinity in units of concentration. A high value points to weaker binding.
